{"source": "the DeepSol protein solubility set", "data": [{"test": "soluble on expression in E. coli; label from the status in PepcDB or PDB records", "values": [{"sequence": "MGSDKIHHHHHHMQQLFVQLLEERYFNRLPEALVLKFATESADFVRFWLVHCMRSMVSERELAIALFFSAEWELEELASLKSFWGSYVAMEEAQEVKATFCHFVPWLKTISPHHEDAICVFSALWFFEHRPTSVGKQLQSATLSHSQLPVSLLDDIKLFSLPHLRPITVYGHQGKGSVESGIRNNMHYPTPIPNDNLAMACVERVIAKFAGIKLAFAEPIVVLRYEPGQFYQWHYDAIHAYTAEIQAELERFGQRSRTAILYLNDDFEGGETEFKAPYIQVKPETAAILVFDNTDQTGKPIPSSLHRGCEVTAGKKWVCTQWFRDKPFWLRAGLLA", "soluble on expression in E. coli": "not soluble"}, {"sequence": "MIKKGYHVAVVGATGAVGQKIIELLENEMKFNVVEVTLLSSKRSAGKKVRFKGREIIIQEAKTTSFEGVDIAFFSAGGEVSRQFVTHAVSSGAIVIDNTSEYRMAQGVPLVVPEVNAHTLKQHKGIIAVPNCSALQMVTALQPIRKSFGLERIIVSTYQAVSGSGIHAIHELREQAKSILAGEEVKSDILPVKKDKKHYPIAFNVLPQVDIFTDNDFTFEEVKMIQETKKILEDENLKMAATCVRVPVVSGHSESVYIELEKEASVAEIKGILMDAPGVILQDNPSEQLYPMPLYAEGKIDTFVGRIRKDPDTPNGFHLWIVSDNLLKGAAWNSVQIAETLVEKGIL", "soluble on expression in E. coli": "not soluble"}, {"sequence": "MGLSVVILAAGKGSRMNSNKPKVLQTLAAKTLIEHVVSSVEKLNPDNIVVVTGHLKEQVEDALQGRNITFVYQQQQLGTGHAVLQALPYLKEQKVLILYGDVPLISTEVLENLVDTTNDDDLGVLTAFVENPQGLGRIVRDKFGAVTEIVEEKDANDIQRQIKEINTGIYCVHKNLLQKWLPEIKANNVQKEYYLTDIITFAKADHVSINVTHPINEFEILGVNDRTQLASLERVWQRNVAEKIMAKGVSIADPNRFDVRGNLDVGKDCWIDINVIIKGNVKLGNNVVIGANCILKNCIIEDNVRIKSNSMVDGSIIREGAIVGPFARVRPECDVKEGAVIGNFVEAKKTILGKGSKASHLTYLGDSEIGANCNIGAGVITCNYDGVNKHKTVIGDYAFIGSDSQLIAPVNIGQGATVGAGSTIVKDVPADNLAISRARQRHIDTWQRSVKKTDK", "soluble on expression in E. coli": "not soluble"}, {"sequence": "MSQPAYRLFNVELKRREQLSPALTRFVFGGPEVAEMKTLAADQRIKIFFPDASGQPPSLPGGSEWYQAYRSVEPARRPPMRTYTIRALRAEQEEVDVEFVLHGENGPASAWATHARIGDRLQLAAPNRQYGDDPGGYEWKPPAGVRHILLIADETALPAVAGILEELAGETEPPVVEAFLEVPGEADILDLPAIPAARLHWLPRHQAGIHSRNGERMIEAARQARLPEREVAGGAAQELEDIDIDEEILWELASPESGSFYAWVAGESAAVMAIRRYLVQERGIDKRHLTLMGYWRLGKVFD", "soluble on expression in E. coli": "not soluble"}, {"sequence": "GFRVFIFIILHFVLTNCIREDMSGCPRDDGGLALKFSYDTNADSRLSTAQGVDRLAVFIFDEKGLFISQVNDSMTSINDDYVMELPYKQGSYQFVAWGGYDKSTYQTSECVPRKTYIDDFFLSVKRQEDNQVTNQPKLLYHGMHDIVELNSKEKTIVLINLKQMTNHIRVIAHNLNQDRSDNIYIEDNNGKYGYDSQFSDDDRITYIPIYEASSEQSNPLIADFNVMRLEKDREPWLRIADKTGTIRYDENLIGKLIGGNPNIDFEHNHDFTIEISFDNYIPVIIKINGWEIVNEEI", "soluble on expression in E. coli": "not soluble"}, {"sequence": "MSYRMFDYLVPNVNFFGPNAISVVGERCQLLGGKKALLVTDKGLRAIKDGAVDKTLHYLREAGIEVAIFDGVEPNPKDTNVRDGLAVFRREQCDIIVTVGGGSPHDCGKGIGIAATHEGDLYQYAGIETLTNPLPPIVAVNTTAGTASEVTRHCVLTNTETKVKFVIVSWRNLPSVSINDPLLMIGKPAALTAATGMDALTHAVEAYISKDANPVTDAAAMQAIRLIARNLRQAVALGSNLQAREYMAYASLLAGMAFNNANLGYVHAMAHQLGGLYDMPHGVANAVLLPHVARYNLIANPEKFADIAELMGENITGLSTLDAAEKAIAAITRLSMDIGIPQHLRDLGVKETDFPYMAEMALKDGNAFSNPRKGNEQEIAAIFRQAF", "soluble on expression in E. coli": "soluble"}, {"sequence": "MPFTLGQRWISDTESELGLGTVVAVDARTVTLLFPSTGENRLYARSDSPVTRVMFNPGDTITSHDGWQMQVEEVKEENGLLTYIGTRLDTEESGVALREVFLDSKLVFSKPQDRLFAGQIDRMDRFALRYRARKYSSEQFRMPYSGLRGQRTSLIPHQLNIAHDVGRRHAPRVLLADEVGLGKTIEAGMILHQQLLSGAAERVLIIVPETLQHQWLVEMLRRFNLRFALFDDERYAEAQHDAYNPFDTEQLVICSLDFARRSKQRLEHLCEAEWDLLVVDEAHHLVWSEDAPSREYQAIEQLAEHVPGVLLLTATPEQLGMESHFARLRLLDPNRFHDFAQFVEEQKNYRPVADAVAMLLAGNKLSNDELNMLGEMIGEQDIEPLLQAANSDSEDAQSARQELVSMLMDRHGTSRVLFRNTRNGVKGFPKRELHTIKLPLPTQYQTAIKVSGIMGARKSAEDRARDMLYPERIYQEFEGDNATWWNFDPRVEWLMGYLTSHRSQKVLVICAKAATALQLEQVLREREGILAAVFHEGMSIIERDRAAAWFAEEDTGAQVLLCSEIGSEGRNFQFASHMVMFDLPFNPDLLEQRIGRLDRIGQAHDIQIHVPYLEKTAQSVLVRWYHEGLDAFEHTCPTGRTIYDSVYNDLINYLASPDQTEGFDDLIKSCREQHEALKAQLEQGRDRLLEIHSNGGEKAQALAESIEEQDDDTNLIAFAMNLFDIIGINQDDRGDNMIVLTPSDHMLVPDFPGLSEDGITITFDREVALAREDAQFITWEHPLIRNGLDLILSGDTGSSTISLLKNKALPVGTLLVELIYVVEAQAPKQLQLNRFLPPTPVRMLLDKNGNNLAAQVEFETFNRQLNAVNRHTGSKLVNAVQQDVHAILQLGEAQIEKSARALIDAARNEADEKLSAELSRLEALRAVNPNIRDDELTAIESNRQQVMESLDQAGWRLDALRLIVVTHQ", "soluble on expression in E. coli": "not soluble"}, {"sequence": "TMEEELEPVVRHLVEQRWPFRLHATYNESITRMLDVFEKVNRDIPFNGLPWFFDHAETITPQNIERVRALGGGIAIQDRMAFQGEYFVDRYGAKAAEQTPPIKRMLEMGVPVGAGTDATRVSSYNPWTSLYWLVSGKTVGGMELYPEGLSRDTALQLFTQGSAWFSSEQGKKGQIKVGQLADLAALSLDFFSVDEEAIKGIESVLTIVDGKVVYGAGEFDKFGPPQVPVLPEWSPVTKVPGHWRVGTPSLAAAVHQCSGPCGVHAHSHEKARHSSVPVNDFQGFWGALGCSCFA", "soluble on expression in E. coli": "not soluble"}, {"sequence": "MKLQQLRYIVEVVNHNLNVSSTAEGLYTSQPGISKQVRMLEDELGIQIFARSGKHLTQVTPAGQEIIRIAREVLSKVDAIKSVAGEHTWPDKGSLYVATTHTQARYALPGVIKGFIERYPRVSLHMHQGSPTQIAEAVSKGNADFAIATEALHLYDDLVMLPCYHWNRSIVVTPEHPLATKGSVSIEELAQYPLVTYTFGFTGRSELDTAFNRAGLTPRIVFTATDADVIKTYVRLGLGVGVIASMAVDPVSDPDLVKLDANGIFSHSTTKIGFRRSTFLRSYMYDFIQRFAPHLTRDVVDTAVALRSNEDIEAMFKDIKLPEK", "soluble on expression in E. coli": "soluble"}, {"sequence": "NDGTTVTPLCTSPVVQCGEGTLFGGDEPARTWFTAAQSSGLAASGNLPSYDPKFNRGVSGSFGTSYVGREGESVRKELSAKGYKVTMTSAPGDGIPKGSVVNVIAPVPLKPGGTIELFISDGTRPRTTPPSTTRRPNPTEEVVPGTGVSQNDLDDLAHQLQQLLPGF", "soluble on expression in E. coli": "not soluble"}, {"sequence": "GGELVLLPAPQIPLIMKIMKKHTPTWVPGVPTLYQKIVEAAERDGISISGVRNSFSGASSLPVETVARWEALTGGLLVEGYGLTETSPIIVGNPMTTDRRPGYVGVPFPDTEIRIANPDNLDETMPDGQEGEVLVRGPQVFSGYLNNPEATAKSFHGQWYRTGDVGIMEEDGFIRLVARIKEVIITGGFNVYPAEVEEVLRNHPDITDATVVGLPRGD", "soluble on expression in E. coli": "not soluble"}, {"sequence": "MGSDKIHHHHHHMGGNSLSKELYDWLGYSSETATASAFVQQRDKIRPEALKLLFHEFTRLTVSENSLQDYRLLAVDGSDLRLPSNSKDGFSSIRNSEDSKNYNLVHLDAMYDLMGKVYVDASVQSKKGMNEHKALVSMVDQSEINGNVIAIMDRGYESFNNIAHFQEKSWYYIIRAKESYGIISRLSLPDYPEYDEEIMLTLTRRQTKETLPLLKAYPHRYRWIQPHTTFDFIKPKDSKFYDLHFRAVRFAIADGVYETVYTNLNAEDFPPEKLKQLYNLRWGIETSFKELKYAVGLASLHSKKKDFILQEIFARLILYNYSSIIMHHISISEDLRVNFPVALNICRQFLRELIPAVQVLKLIGKHLSPIRPGRQFPRHQNPISAVGFQYRII", "soluble on expression in E. coli": "not soluble"}, {"sequence": "MSASDGDNTEQTGRRRSFGNLFGSTRVPFSSLSDIYANQSTFAKDQGVQSEVDVADAWSQHHAPTRDQYVQSEIITAVETSSQYEVQTKDKEVEAICSTANRTTQTCHATNIAGTNSESCLIEKLANSLLEHLQARRPIKARTAFPIYLQQPEQLQLLPPPDQQSAPVPPSHPLQNSEARQEDLEQTEMPQASQQIGINETSLNDADSQSFFHSRLHQTEQREETNSNSMQSIHSQVNPPASQETMESHFPEMINSRKSDHQLCFSFKKVTSERCSSFPTRHDGSSHFARSSSGLLGSMSSQQQRSQFPVPQEEGNQAEDMRGAQQPHNARNLFGGVGGMFPSMPNSSGGQGPDWQNNHFIRPFGQPAAGMMSWHPGMMPSHMNNSAAPSSFFESPFMPPYDVFMQQQMLLHSQYAAWEQQRNHAMMYQNAQNQNSANVNPSFADIPSAAPISQPEVNVNENQIVPEETERLEADLEIENTVDAIIVTDVGSVNQAVSGVNSIARETEEINNQDVRNETPVEDFGSIISAISITENRNESPMPSASETDDTSPHTSRSRYGSSVAISTGMKRARLEPSQSPPGSSRKNSRNETTKKNSKTPSSTIDKEPTSSKRTRKAPARYEAEWNAEQGGDTRRAKRWSKDFYKAPSKK", "soluble on expression in E. coli": "not soluble"}, {"sequence": "MQYINESATVSASNNVEKLRKQGLKIYNFGIGEPDFTTPEGIIDYAFEMAKQGKTHYTPSAGIMELREKIASKLKTRNRIDANAENVLVTPTKFGINLAMMVILNPGDEVIIPDPYYVSYPDIVKLAGGKPVPVRTTDDYDIDLDEMRKFVTPRTRAIILNNPNNPTGKVLSEKEIRDLVDFALENDIYIVSDEIYEDLIYEGSLYSPASMGKEAFEHTITLNGFSKGYAMTGWRIGYFVATEEIVEAANIIQQQTITCASSISQYAALRALDDNESPARMRSEFRKRRDLAYGILSESTDMKVHKPEGAFYMFPGYSKDIPSEKIAEMLLNQEHVVVTPGSAFGDRGRHHFRISFATSEDIIKEGLERLVKFMHTL", "soluble on expression in E. coli": "soluble"}, {"sequence": "MTRTPFSRRRFLQLSGGLALAGVSLPLWAHDMADMAGGDAHPALRLPEPYKIKLAINKSAVCLAPVAVAEQQKIFSKYNLDVEFVNFGNSTDVLLEAIATGKADAGVGMALRWLKALEQGFDVKLTAGTHGGCLNLLTAKDSPFGGLESLKGQTIGVTDMAGPDKNFFAILLKRHGIDPISDVQWKVYPADLLSVALDKREIAAISGSEPFSYRLLETGKYQLIASNMTGDYANLSCCVLGVSGSLARDHKPAAAALTQAILEAHSYAAAHPESVAQSFLAHALNTSEAEVSGILHGQGHGHHAVGEAFVKELTQYAVDLQRVQVIKPGTDPHQFAESIYANVFA", "soluble on expression in E. coli": "not soluble"}, {"sequence": "MGSDKIHHHHHHAEVDQATKPAEAKYYIAGTITDATTGQELTTAKVTLGDKSVTSSFNEQVNYKAEGYALVVSADGYYPVKRQVYLNQVSDGQTSVATVNVALVSVEAAVIPPVVPPTDPETDINEGEATKVADKAVEVAKPSESTVTDMLAGTTATPEEKKALDETLEMAGGMKVGETTPEVLADGSILAITPVKFTNPIQDAPAMVPYFYNEGCELTGDVKEVAAPVTRADGAVAADIQKAFLSNAAKALNMNAGFVQKIGYTRISVLNGYSILGYTIKGQLVSKKLTFLISGKYYEGIVSYQKSVMIYPNYYSHDSHDSHDSHGFNPNAGGGSND", "soluble on expression in E. coli": "not soluble"}]}]}
